The series in a line: soluble on expression in E. coli; label from the status in PepcDB or PDB records.
As to “MGSDKIHHHHHHMKFFNREKEIHKILSIIEGEPNLIYFIYGSINSGKTALINEIINNRLDKNKYIVFYFDLREIFISKYDDFIEVLFEEYEGDKSPIEVIKAIINDLPSLYGIPIPKNTLNEIFKKKTTKNVFRYITNVLMDIKREGKQPIIIIDELQKIGDMKINGFLIYELFNYFVSLTKHKHLCHVFCLSSDSLFIERVYNEAMLEDRVDYILVDDHRGGYAPSIGILPQIESGVAFGNPALEYSNRGFASMRGEYILVDDFDKETALKFMDFLAKENNMSLTNEDKELIYNYVGGKPVLIIKVIDKLRYENLNDILDFMLKDATQKLKYFLEDVKEEDEELYKKVVDALKLFKEDYEIEDIKIPKKIREFLIKRNILFLNPIEGILKPQSFLVWNAIKKVL”, the “soluble on expression in E. coli” value is given as “not soluble”.
“MPTYKLTYFNARGYAEAARILFHLADVPFEDFRMTHGDGTWEKLKDGAPFGQVPYLTVDGFDIPQSAAIIRYLANKFGYAGKTPEEQVWADAIVDQFKDFMGSFRERIMAHFAGKSQEEIAKITSEVVIPARDSYFKILNGLLEKSKSGFLVGDSITFADIVISENITTLEKNQLFVASEQPNLAALREKVYAIPAIRKWVEARPDTQY”: the “soluble on expression in E. coli” value is on record as “not soluble”.
Turning to “MSLTDRLRATYRVKATAASIEARAKGIAVEQSVEMPLSAIDDPAVLDGIVGVVEEITERGEDCFEVRLALSTATIGGDAGQLFNMLFGNTSLQDDTVLLDIDLPDDLLASFGGPNIGAAGLRARVGASADRALTCSALKPQGLPPDRLADLARRMALGGLDFIKDDHGMADQAYAPFASRVGAVAAAVDEVNRQTGGQTRYLPSLSGHLDQLRSQVRTGLDHGIDTFLIAPMIVGPSTFHAVVREFPGAAFFAHPTLAGPSRIAPPAHFGKLFRLLGADAVIFPNSGGRFGYSRDTCQAVAEAALGPWGGLHASLPVPAGGMSLARVPEMIATYGPDVIVLIGGNLLEARDRLTEETAAFVASVAGAASRGCGLAEGHHHHHH”, the “soluble on expression in E. coli” value is “soluble”.
Turning to “MGSDKIHHHHHHMRINVEEAIEKLLANQLVAMPTETVYGLAARLTCPGAIKKIFEIKGRSLVNPLIIHVANPIDVCAYAIALPPHFDALTHAFWPGPLTLIVPIQLDLVDSIVRAGLPTAAFRMPSHPLTLHVIRAVGPLVMPSANLSGKPSSTDVKHVEMDFGLDFPVLDGGPCQEGVESTILHYRNSQWEIARLGALSATVFQPILGYEPIYQKIVKNDQIISPGQMFRHYAPQATLFLGDQKQITEADFIVGFTEKSYPVEKRVLYLGSLSNPHEVAENLYAVLRQLDFEKAKIAWVDMDFPSEGLWKTIAERLSRAGEK”, the “soluble on expression in E. coli” value is listed as “not soluble”.
With “MVADLMLCTNFFIFTGGPGSGKTAVLNELNTWGYLTVSEVARSIIQKQQADGGDAIHTGNRKAFRDLMLEQSIADYCKMQSEEKIVFFDRGIPDLYGYSKAFCGEASKEVNEAVGRFRYNKTVFIFPPWPEIYENDDERQQDYQEALQTYYAVKEGYFDCGYVLLEVPKCPIKDRANFIFQMISKNGLEHHHHHH”, the “soluble on expression in E. coli” value is reported as “soluble”.
Under “MSLQFEGDTITYVGTGRPASDEIIDATGKVVMPGFINTHAHVGMSASKGLFDDVDLERFLDMTFKYDSQRTEEGIFNSARLGMYEMINSGITSFVDLYYSENVIARAAEQVGIRAFLSWVTLDREFTTQKGDPLDNAENFIRSHQNMRFVKPSVGVQGIYVASDETYQRAKEIAERYDTIMHMHLSETRKEVYDSVKKIGERPIEHLDKIGVLSSRVIAAHCVWATYHEAKLLGKNGVNVSWNAVSNFKLATGGVPPVPEMLDAGVNITIGTDSNGSNNSLNFFEAMKFSALTVKNARWDASIIKSQQILDFATIDAAKALRLNAGSIEVGKKADIVILDARRPELIPTDKNNVVNNIVYSTNPASVDSVIIDGVFRKKGGRLIGFDEGGVASANVFVEGHHHHHH” stands “not soluble”; under “MIHKRTNEGDLVIESFADKRCKDLLEGNPPKGFPTTLVRIVQRKLFMLDKAVDLKDLRSPPGNRLEALKGERKGQYSIRINDQFRICFEWRSNGAYEVEIVDYH”, “not soluble”.
To “MEIGIIGTGNIGGTLARKLIAAGHQVRVANSKGIHGVQSFADEIGATAVDVYGAVKGADAIILSIPLPALASLPNGFFDDLPETVPLIDTSNYYPGLRDPLIPEIDDGMTESVWVSQQLSHPVIKAFNNILAWSLAELGTPKGSASRLAIAVAGDNATLKQIVMNLVDDTGFDAIDAGSLEESWRQQPSTPAYCCDYDAETMKKGLTAAVRGEAASKRDRLPELFGKLGANPTHEDIVAMNRSLNPLEHHHHHH” belongs “soluble”; to “MSIESSATPTTPNAEALQLNSTEVRILGCLIEKQATNPETYPLTLNALVIACNQKTSRDPVMNLTQGQVGQSLRALEGRGLTRLVMGSRADRWEHKVDKGLELVPAQVILTGLLLLRGPQTVSELLTRSNRMHDFEDSEQVVHQLERLIARGLATLVPRQSGQREDRYMHLIGDPEDLQD”, “soluble”; to “MFSWLGTDDRRRKDPEVFQTVSEGLKKLYKSKLLPLEEHYRFHEFHSPALEDADFDNKPMVLLVGQYSTGKTTFIRYLLEQDFPGMRIGPEPTTDSFIAVMQGDMEGIIPGNALVVDPKKPFRKLNAFGNAFLNRFVCAQLPNPVLESISVIDTPGILSGEKQRISRGYDFAAVLEWFAERVDRIILLFDAHKLDISDEFSEVIKALKNHEDKMRVVLNKADQIETQQLMRVYGALMWSLGKIVNTPEVIRVYIGSFWSHPLLIPDNRKLFEAEEQDLFRDIQSLPRNAALRKLNDLIKRARLAKVHAYIISSLKKEMPSVFGKDNKKKELVNNLAEIYGRIEREHQISPGDFPNLKRMQDQLQAQDFSKFQPLKSKLLEVVDDMLAHDIAQLMVLVRQEESQRPIQMVKGGAFEGTLHGPFGHGYGEGAGEGIDDAEWVVARDKPMYDEIFYTLSPVDGKITGANAKKEMVRSKLPNSVLGKIWKLADIDKDGMLDDDEFALANHLIKVKLEGHELPTSCLPTSCPRPRGKLPSDGVGGHSDGQC”, “not soluble”.
For the sequence “MSLSNYISIKGAKVNNLKNIDVNIPRNKLVVITGLSGSGKSSLAFDTGKTICPVCHGTRLKKEAGYVKVGGKSISQLVDLPIHDLKEFFRTLELDAHDTAIAKRILTEITNRINFLMDVGLGYLTLNRLSNSLSGGESQRINLATSLGSSLVGSLYILDEPSIGLHSRDTDRLIKVLRQLQELGNTVVVVEHDEEIIRAADYIIDIGPQAGRLGGQIVYQGNMNDLQRNSNSYTVRYLLGEEGHHHHHH”, the “soluble on expression in E. coli” value is listed as “soluble”.
Regarding “MVEKEKKDEEETRKITISVKGIRDDVYRNVSELARHTGKTIGEITNDAYRTFLGTVEGVRNVSQSFIEGAKGAIPRYIDNFKKLEITADDLKDLGQKVAFRNIDELTFKNITDEEFSKYVAFIDGVKVLKIPKTVKKTTVIKISTFVDEIIQE”, the “soluble on expression in E. coli” value was “not soluble”.
Regarding “MKYEVVITSGNSNQAPIGAFFKGDFVTLHLYGGSHTFENLQKDGFYILNTCSPYLIAKSVLDDAGDYEYLDNDGIKIPYLKDSYKIELIEIKSRKIVETKNEFGSSKLMIVEGKPIFEKILNCNTSAYNRADGAVVEMAVLYSRKNMISKEEINDEITRLMKIIKKVGSKNHIELAKKLGVLEHHHHHH”, the “soluble on expression in E. coli” value was “not soluble”.
As for “MGSDKIHHHHHHMTRKFGEIAFTPEVQAAQEERGSRQTYDRYIANGPANDTITPNIAKFIAQLEGFYLGTVSSNGYPYIQFRGGSPGFLKVLDEKTLGFADFSGNLQYITVGNLSSNDKAFLFLMDYRHRQRIKIWGRAEYIEGESSLLEQVRVADYPAQVERAILFHVEATSENCPQHIPVRYSEREVKAMMAPLENRIAELEQQLSEQNSSSKTGKQLPSRD”, the “soluble on expression in E. coli” value is given as “not soluble”.
Under “MRSAVTFFTFFLDKAEPISTRDTSSESIIPEQEKRRDDMRAVVLVPFLKQQRENRDAASAPAAPGRSVEAKLEEAKGLALAIDLEVTQGLVVPVNQPRPATLFGTGKIEEIGHLLDETNSGLVIVDHPLTPVQQRNLESSGTPRLSTAPVAAALEHHHHHH” stands “not soluble”; under “MSLVWTKTTYMGINCWKSVSDMWNYQEILSELQPSLVIEFGTRYGGSAVYFANIMRQIGQPFKVLTVDNSHKALDPRARREPDVLFVESSSTDPAIAEQIQRLKNEYPGKIFAILDSDHSMNHVLAEMKLLRPLLSAGDYLVVEDSNINGHPVLPGFGPGPYEAIEAYEDEFPNEGHHHHHH”, “not soluble”.
Turning to “MSLDHSRDQARRNIAVHYDLSNDLFAAFLDETMTYSCAMFTDLLAQPTPAWTELAAAQRRKIDRLLDVAGVQQGSHVLEIGTGWGELCIRAAARGAHIRSVTLSVEQQRLARQRVAAAGFGHRVEIDLCDYRDVDGQYDSVVSVEMIEAVGYRSWPRYFAALEQLVRPGGPVAIQAITMPHHRMLATRHTQTWIQKYIFPGGLLPSTQAIIDITGQHTGLRIVDAASLRPHYAETLRLWRERFMQRRDGLAHLGFDEVFARMWELYLAYSEAGFRSGYLDVYQWTLIREGPEGHHHHHH”, the “soluble on expression in E. coli” value was “not soluble”.
To “MQSVTPTSQYLKALNEGSHQPDDVQKEAVSRLEIIYQELINSRPPAPRTSGLMARVGKLWGKREDTKHTPVRGLYMWGGVGRGKTWLMDLFYQSLPGERKQRLHFHRFMLRVHEELTALQGQTDPLEIIADRFKAETDVLCFDEFFVSDITDAMLLGGLMKALFTRGITLVATSNIPPDELYRNGLQRARFLPAIDAIKQHCDVMNVDAGVDYRLRTLTQAHLWLSPLNDETRAQMDKLWLALAGVKRENSPTLEINHRPLATMGVENQTLAVSFTTLCVDARSQHDYIALSRLFHTVMLFDVPVMTRLMESEARRFIALVDEFYERHVKLVVSAEVPLYEIYQGERLKFEFQRCLSRLQEMQSEEYLKLEHHHHHH” belongs “not soluble”; to “MTTHQVKKSEAKRQHILDSGFHLVLRKGFVGVGLQEILKTSGVPKGSFYHYFESKEAFGCELLKHYISDYQIRLNQLWTTETSARDKLMNYLQCWVKDPATEQSWAESCLIVKMAAEVADLSEDMRLIMNDGVKRLIARMADLIRIGQQEGSIQTSVVPDVLAQVIYQMYLGAALLSKLYKHKAPLFQALESTKMMLDGCNHVQQDKNQ”, “soluble”; to “MRPMGHAESVMSRFAHRVKSRRSWKDQGLRAFLKAMVARIDGIRWRKGPLEAEEPQSAVSASTKSKRIEQAKRKAGRLWADVVRQNLPCLQQSSGTPIHQALSALRDGGWV”, “not soluble”.
“MAHHHHHHMSLNLTDAADDRSYKEMEKYTVERVAGQGTFGTVQLARDKSTGSLVAIKKVIQDPRFKNRELQIMQHLARLRHPNIVMLKNYFYTVGGEGRRNDVYLNVVMEFVPETLHRTCRNYYRRMTNPPLILVKVFMFQLLRSIACLHIPVINICHRDIKPHNVLVDEQTGELKLCDFGSAKRLAADEPNVAYICSRYYRAPELIFGNQFYTTAVDIWSVGCIFAEMLLGEPIFCGENTSGQLREIVKILGKPTKEELHKLNGSSTEINANAKATPWENVFKQPLPAEVYDLCGKIFKYVPDQRITPLDALCHPFFNELREPTTKLPSGNPLPAHLYQFTPDEVEAMTEAQREYLLKK”: the “soluble on expression in E. coli” value was “not soluble”.
Under “MNQYPDFDQKLYDDLRRGKEYAFAAVFDRYHRLLYTIAYRFLKSEEEAEDAVQYLFMKLWEQRETFSFESGIRSLLFTILKNYILNELRHRNLVFEKLYEMAQQVNDEDEDAFLTRFEHGELRKSLRVAIDKLPPQKQKICLLKIEYGLSNQEIADRMGITVPTVKSHYTQAIKALRNAIESLIMWFPVIWIYLID” stands “not soluble”.

These data come from the DeepSol protein solubility set.
